# Laboratory results: patent US9657059B2, “Immune system modulators” (Canimguide Therapeutics AB, priority 2013, dated 2017)
# Molecular target: P3028 (SEQ ID NO: 185) (Homo sapiens, UniProt P02768)
# Test: PEPSCAN (rampo) ELISA: binding of His-tagged P3028 to P28R variants on chip
# Details: binding of His-tagged P3028 0.5 μg/mL to chip-bound peptide, OD405 raw value
# Description: Based on the structure of peptide P28R, additional peptides were identified that bind to P3028. The additional binders included deletions, truncations, and or amino acid substitutions of peptide P28R. Binding of peptides to P3028 was assayed using PEPSCAN technology. PEPSCAN technology, or “rampo” assays are biochemical binding assays, details of which are provided below:
# A peptide microarray screening technology was used to measure binding of P28R (SEQ ID NO: 2) and variants of P28R to P3028 (SEQ ID NO: 185). In this technology libraries of synthetic peptides are synthesized and covalently linked onto polypropylene microarray chips. The linear peptides were synthesized onto credit-card format polypropylene cards (455 peptide formats/card) as described by (Timmerman et al., 2004) using standard Fmoc-chemistry using hexamethylenediamine (HMDA) as linker and deprotection using trifluoroacetic acid (TFA) with scavengers.
# The binding of His-tagged P3028 to each peptide on the card was tested in an ELISA assay. The 455-well credit card format polypropylene cards containing the covalently linked peptides were incubated with His-tagged P3028 peptide (PGE73) solution consisting of 0.5 μg/mL diluted in blocking solution (4% horse serum, 5% ovalbumin (w/v) in PBS/1% TWEEN reagent). After washing, the peptides were incubated with a monoclonal mouse anti-His-tag antibody (Novagen, 70796-3, diluted 1/1000 in the incubation buffer) and subsequently after washing with a rabbit-anti-mouse antibody peroxidase (Rampo) conjugate (Southern Biotech, 6175-05, diluted 1/1000), for one hour at 25° C. After washing, the peroxidase substrate 2,2′-azine-di-3-ethylbenzthiazoline sulfonate (ABTS) and 2 μL of 3% H2O2 were added. The binding capacity of the mAb was measured as a color development at 405 nm (optical density, OD405). The color development was quantified with a charge-coupled device (CCD)—camera and an image processing system.
# The OD405-values obtained by a CCD-camera was considered as raw data values (“rampo values,” “rampo units,” or “rampo scores”). The values mostly ranged from 0 to 3000, a log scale similar to 1 to 3 of a standard 96-well plate ELISA-reader. First the CCD-camera made a picture of the card before peroxidase coloring and then again a picture after the peroxidase coloring. […] These values were copied into an excel file and labeled as a raw data file. One follow-up manipulation was allowed. Sometimes a well can contain an air-bubble resulting in a false-positive value. If manual inspection of the cards detect an air-bubble the value are set to 0 for that well.
# A library of peptides tested for binding to peptide P3028 included all substitutions for each position of the peptide P28R (SEQ ID NO: 2) (i.e., 19 substitutions for each position). The results of the binding experiments are shown in FIGS. 27, 28, 29 and 30 and Table 5.1. […] P28R had rampo values ranging between 262 and 460 with a mean value of 370. […] In addition, M and S in position 7 (SEQ ID NOs: 9 and 10, respectively), and Q and M in position 11 (SEQ ID NOs: 15 and 16, respectively) all have rampo values over 700.
# For each position of P28R, the rampo scores of the group of 19 different peptides containing an L-amino acid substitution were compared to the rampo score of a control sample P28R peptide (SEQ ID NO: 2) for that group. Single-amino acid substitutions having a rampo score greater than or substantially equivalent to P28R were identified. […]
row,Substance,RAMPO Score
1,391 (KKLDTFFVKLSLFTER) [compound 391],260

# Same assay, conditions: truncations, deletions, glycine substitutions (FIG. 29, 30)
row,Substance,rampo score / binding to P3028 compared with P28R
1,KKLDTFFVKLSFTER [SEQ ID NO: 68],"comparable to, or higher than peptide P28R"
2,KKFFVKLSLFTER [SEQ ID NO: 76],"comparable to, or higher than peptide P28R"
3,KKLDTFVKLSLFTER [SEQ ID NO: 65],"comparable to, or higher than peptide P28R"
4,KKLTFFVKLSLFTER [SEQ ID NO: 64],"comparable to, or higher than peptide P28R"

# System: PBMCs from a healthy control
# Test: PBMC activation (CD69, CD71) by flow cytometry in RPMI plus 10% human AB serum
# Type: cell-based
# Details: 40 μg/mL; 24 hours
# Description: FIG. 41 is a series of graphs illustrating effects of modified peptides on activation of PBMCs from healthy control person. PBMCs were incubated with the peptides (40 μg/mL) for 24 hours in RPMI plus 10% human AB serum. Activation is determined as percentage of cells with enhanced marker CD69 using flow cytometry. FIG. 41A illustrates results of two experiments (410 and 412) performed for each peptide. FIG. 41B illustrates results of two experiments (414 and 416) performed for each peptide.
# FIG. 42 is a series of graphs illustrating effects of the full length peptide P28R and the 6 amino acid central sequence (32230, FFVKLS, SEQ ID NO: 62) in culture medium containing normal human AB serum. Activation is determined as percentage of cells with enhanced marker CD69 or CD71 using flow cytometry. PBMCs were incubated with the peptides (40 μg/mL) for 24 hours in RPMI plus 10% human AB serum. FIG. 42A illustrates the results of two experiments (420 and 422) performed for each peptide. FIG. 42B illustrates the results of two experiments (424 and 426) performed for each peptide.
# FIG. 46 is a series of graphs illustrating Effect of modified peptides on activation of PBMCs from healthy control person. […] PBMCs were incubated with the peptides (40 μg/mL) for 48 hours in RPMI plus 10% human AB serum.
# Based on the positional scan data, it is contemplated that substitutions of SEQ ID NO: 2 can be useful in accordance with some embodiments herein for binding P3028, de-blocking the LFA-1 receptor from P3028-mediated inhibition (e.g. displacing bound P3028 peptide and P3028-structure containing molecules from the LFA-1 receptor), and/or stimulating immune cells. The activity of peptide P28R (SEQ ID NO: 2) and modifications of P28R was studied in a human ex vivo model using PBMCs from a healthy control human in short term cultures, and with PBMC activation measured as a percentage of cells with enhanced CD69 (see Example 37).
# As P28R (SEQ ID NO: 2) can bind to P3028 and stimulate PBMC's from healthy controls in short term cultures, for example when in a culture medium comprising RPMI plus 10% normal human AB serum (see Example 37), it is contemplated that truncations of P28R in accordance with some embodiments herein can be useful for binding to inhibitors of any one or more of the peptides listed in Tables 1-4. Truncations of P28R were assessed for their ability to activate PBMC's (see Example 38). PBMCs were incubated with the peptides (40 μg/mL) for 24 hours in RPMI plus 10% human AB serum. PBMC activation was measured as percent cells with enhanced expression of either CD69 (FIG. 42A) or CD71 (FIG. 42B) using flow cytometry. […] However, PBMCs were also incubated with the peptides in cancer sera from dogs, or in caner sera from human cancer patients (see FIG. 43). […] As such, it is contemplated that in accordance with some embodiments herein, P28R, P28 core, or combinations of these peptides are useful for stimulating immune cells in the serum of a subject that has cancer.
# Effects of modified peptides on the activation of PBMCs from a healthy control person were assessed (see Example 41). PBMCs were incubated with the peptides (40 μg/mL) for 48 hours in RPMI plus 10% human AB serum, and PBMC activation was determined by flow cytometry based on the percentage of cells with enhanced marker CD69 or CD71. Peptides P28R (SEQ ID NO: 2), P28 core (peptide 32230) (SEQ ID NO: 62), 32251 ([…]) (SEQ ID NO: 592), 32814 ([…]) (SEQ ID NO: 586), 32815 ([…]) (SEQ ID NO: 595), 32665 ([…]) (SEQ ID NO: 593), and 32819 ([…](C(PEG24))) (SEQ ID NO: 594) were tested. […] Accordingly, it is contemplated herein that
row,Substance,"PBMC activation, cells with enhanced CD69"
1,KKLDTFFVDLSLFTER [compound 31138],did not stimulate
2,KKLDTFFVKLSLFTFR [compound 30685],did not stimulate
3,KKLDTFFVNLSLFTER [compound 31136],did not stimulate
4,KSLDTFFVKLSLFTER [compound 30864],did not stimulate

# Molecular target: P3028 (Homo sapiens, UniProt P02768)
# Test: PEPSCAN rampo assay: binding of P3028 to support-bound peptides, sandwich ELISA
# Details: binding of P3028 to peptide on solid phase
# Description: Based on the ability of P28R to bind the P3028 sequence/structure, unblock the LFA-1 receptor, and ameliorate the P3028 sequence/structure-dependent immunosuppression, P28R was used as a template compound to identify additional compounds that bind to and sequester P3028. Variants of the P28R structure were synthesized, and tested for the ability to bind P3028 using PEPSCAN technology (see Example 12). A library of peptides that include each genetically-coded amino acid substitution at each amino acid position of P28R (i.e., 19 substitutions for each position) was synthesized. Each peptide was affixed to a support pin, and the peptide library was incubated with P3028. The binding of the candidate inhibitors to P3028 was detected by a sandwich ELISA, where a rabbit anti-mouse peroxidase (rampo) secondary antibody was employed (see Example 12). The binding of each peptide was then assigned a rampo score (see FIG. 27). Peptide P28R had rampo values ranging between about 262 and 460 with a mean value of 370. In some embodiments, the immunoregulatory peptide inhibitor as disclosed herein, is selected for a desired P3028 binding rampo score. In some embodiments, the desired P3028 binding rampo score is greater than or equal to the rampo score of P28R. It is also contemplated that some peptides that bind to P3028 with less affinity than P28R have therapeutic application. Some peptides with binding affinities that are less than P28R, for example, may modulate signal transduction events differently than P28R by virtue of the fact that the affinity to P3028 is less. […] Accordingly, contemplated embodiments include peptides that bind with any affinity to P3028 (e.g., any one or more of the peptides provided in Table 5.1, preferably peptides that modulate the immune system (e.g., modulate, upregulate or down regulate a marker of the immune system or immunosuppression, such as reducing a P3028-mediated inhibition of immune cell proliferation, spreading, migration, or NK-cell cytotoxicity).
# It is contemplated that inhibitors of any one or more of the peptides listed in Tables 1-4 can comprise modifications of the P28R (SEQ ID NO: 2) or P28 core (SEQ ID NO: 62) sequence, and further can be useful for reducing inhibition of the LFA-1 receptor, or for stimulating immune cells. To identify modification to inhibitor peptides in accordance with some embodiments herein, positional scan data was used to study the influence of substitution of different types of amino acids in each position of P28R (SEQ ID NO: 2) on the binding of P3028 (SEQ ID NO: 185). Each amino acid in the peptide sequence of P28R (SEQ ID NO: 2) was exchanged with all of the naturally occurring amino acids, and binding of P3028 (SEQ ID NO: 185) to each peptide on a solid phase chip was assessed (see, e.g. Example 36). A number of optional modifications to P28R in accordance with embodiments herein are summarized in Tables 5.3, 5.4, 5.5, 5.6, and 13. Optionally, an inhibitor peptide in accordance with some embodiments herein can comprise one or more of the modifications of Table 5.3 or Table 13. Optionally, an inhibitor peptide comprises a central core of positions 2, 5-11, and 15 as provided in Table 5.3, and the remaining position are omitted or substituted with substantially any amino acid. Optionally, an inhibitor peptide comprises a central core of positions K2, T5-S11, and E15 of SEQ ID NO: 2, and the remaining position are omitted or substituted with substantially any amino acid.
# Embodiments of the invention also include immunoregulatory peptide inhibitors that have a specific affinity to P3028 sequences or structures. In some embodiments, the immunoregulatory peptide inhibitors have specific affinity to P3028 sequences or structures as measured by a rampo assay in which the immunoregulatory peptide inhibitors are affixed to a solid phase, P3028 is added, and the enzymatic activity of a rampo secondary antibody is measured so as to detect binding (see Example 12). […]
row,Substance,RAMPO Score
1,414 (KKLDTFFVKLSLFTER) [compound 414],402
2,398 (KKLDTFFVKLSLFTER) [compound 398],445
3,427 (KKLDTFFVKLSLFTER) [compound 427],377
4,391 (KKLDTFFVKLSLFTER) [compound 391],366
5,399 (KKLDTFFVKLSLFTER) [compound 399],442
6,428 (KKLDTFFVKLSLFTER) [compound 428],375
7,476 (KKLDTFFVKLSLFTER) [compound 476],319
8,516 (KKLDTFFVKLSLFTER) [compound 516],260
9,400 (KKLDTFFVKLSLFTER) [compound 400],437
10,396 (KKLDTFFVKLSLFTER) [compound 396],460
11,403 (KKLDTFFVKLSLFTER) [compound 403],428
12,430 (KKLDTFFVKLSLFTER) [compound 430],371
13,487 (KKLDTFFVKLSLFTER) [compound 487],308
14,408 (KKLDTFFVKLSLFTER) [compound 408],414
15,406 (KKLDTFFVKLSLFTER) [compound 406],424
16,442 (KKLDTFFVKLSLFTER) [compound 442],348
